Here are results for ten molecules from patent publication US20160102129A1 (Novo Nordisk, published 2016).

*1 amine or outer side, *2 acyl side, *3 side chain or, on linkers, in order; H or OH if unused. Side-chain parts run from the residue outwards. [ ]: non-standard residue; d: D form. The star is where a group is joined. C18 diacid = O=C(O)CCCCCCCCCCCCCCCCC(=O)*; γGlu = O=C(O)[C@H](CCC(=O)[*:2])N[*:1]; Desaminohistidyl = O=C(CCc1c[nH]cn1)*; Ac4c = NC1(C(=O)O)CCC1; Aib = CC(C)(N)C(=O)O

Sequences and labels used below:
B1: N^ε35-[(4S)-4-carboxy-4-[[2-[2-[2-[[(4S)-4-carboxy-4-[[2-[2-[2-[[(4S)-4-carboxy-4-[[2-[2-[2-[[(4S)-4-carboxy-4-[[(4S)-4-carboxy-4-(17-carboxyheptadecanoylamino) … (peptide)
peptide: XXHGTFTSDYSKYLERQAAREFIAWLLKK
modifications: Imp (desamino-His) at 7; Acb at 8; Lys35 N-epsilon acylated with 17-carboxyheptadecanoyl-γGlu-γGlu-Ado-γGlu-Ado-γGlu-Ado-γGlu-; C-terminal amide (GLP-1(7-37) numbering)
B2: N^ε35-[(4S)-4-carboxy-4-[[2-[2-[2-[[(4S)-4-carboxy-4-[[2-[2-[2-[[(4S)-4-carboxy-4-[[2-[2-[2-[[(4S)-4-carboxy-4-[[(4S)-4-carboxy-4-(17-carboxyheptadecanoylamino) … (peptide)
peptide: XXHGTFTSDYSKYLEGRAAREFIAWLLKK
modifications: Imp (desamino-His) at 7; Acb at 8; Lys35 N-epsilon acylated with 17-carboxyheptadecanoyl-γGlu-γGlu-Ado-γGlu-Ado-γGlu-Ado-γGlu-; C-terminal amide (GLP-1(7-37) numbering)
B3: N^ε35-[(4S)-4-carboxy-4-[[2-[2-[2-[[(4S)-4-carboxy-4-[[2-[2-[2-[[(4S)-4-carboxy-4-[[2-[2-[2-[[(4S)-4-carboxy-4-[[(4S)-4-carboxy-4-(17-carboxyheptadecanoylamino) … (peptide)
peptide: XXHGTFTSDYSRYLEEQAAREFIAWLLRK
modifications: Imp (desamino-His) at 7; Acb at 8; Lys35 N-epsilon acylated with 17-carboxyheptadecanoyl-γGlu-γGlu-Ado-γGlu-Ado-γGlu-Ado-γGlu-; C-terminal amide (GLP-1(7-37) numbering)
B4: N^ε35-[(4S)-4-carboxy-4-[[2-[2-[2-[[(4S)-4-carboxy-4-[[2-[2-[2-[[(4S)-4-carboxy-4-[[2-[2-[2-[[(4S)-4-carboxy-4-[[(4S)-4-carboxy-4-(17-carboxyheptadecanoylamino) … (peptide)
peptide: XXHGTFTSDYSKYLERRAAREFIAWLLKK
modifications: Imp (desamino-His) at 7; Acb at 8; Lys35 N-epsilon acylated with 17-carboxyheptadecanoyl-γGlu-γGlu-Ado-γGlu-Ado-γGlu-Ado-γGlu-; C-terminal amide (GLP-1(7-37) numbering)

One experiment has as its target T1, human GLP-1 receptor (human, UniProt P43220 24-463). Kind of experiment: cell-based or functional assay.
B1: the “EC50 GLP-1R [pM], CRE luciferase reporter gene assay” value (from here on “EC50 GLP-1R [pM]”) stood at 7 pM.
For [Desaminohistidyl][Ac4c]HGTFTSDYSKYLEEQAAREFIAWLLKK([Gly-Ser-Glu-Gly-Ser-γGlu-γGlu-C18 diacid])-NH2, the “EC50 GLP-1R [pM]” value turned out to be 5.7 pM.
Same read-out and setting: under B2 stands 16 pM; under [Desaminohistidyl][Aib]HGTFTSDVSRYLEGQAAREFIAWLLK([Gly-Ser-Glu-Gly-Ser-γGlu-γGlu-C18 diacid])T-NH2, 17 pM; under [Desaminohistidyl][Aib]HGTFTSDVSKYLEAQAAREFIAWLLK([γGlu-γGlu-Ado-γGlu-γGlu-C18 diacid])T-NH2, 3 pM.
Turning to [Desaminohistidyl][Aib]HGTFTSDVSRYLEEQAAREFIAWLLK([Gly-Ser-Glu-Gly-Ser-γGlu-γGlu-C18 diacid])T-NH2, the “EC50 GLP-1R [pM]” value amounted to 6 pM.
For the molecule B3, the “EC50 GLP-1R [pM]” value came to 3 pM.
On to [Desaminohistidyl][Aib]HGTFTSDVSKYLEEQAAREFIAWLIK([Ado-Ado-γGlu-γGlu-C18 diacid])T-NH2, for which the “EC50 GLP-1R [pM]” value stood at 18.3 pM.
Consider B4, for which the “EC50 GLP-1R [pM]” value was 8 pM.
For [Desaminohistidyl][Ac4c]HGTFTSDVSKYLEGRAAREFIAWLLK([Gly-Ser-Glu-Gly-Ser-γGlu-γGlu-C18 diacid])T-NH2, the “EC50 GLP-1R [pM]” value was determined as 12 pM.

The target of the next experiment is T2, human glucagon receptor (human, UniProt P47871 26-477). Kind of experiment: cell-based or functional assay.
T2 sequence (P47871 26-477): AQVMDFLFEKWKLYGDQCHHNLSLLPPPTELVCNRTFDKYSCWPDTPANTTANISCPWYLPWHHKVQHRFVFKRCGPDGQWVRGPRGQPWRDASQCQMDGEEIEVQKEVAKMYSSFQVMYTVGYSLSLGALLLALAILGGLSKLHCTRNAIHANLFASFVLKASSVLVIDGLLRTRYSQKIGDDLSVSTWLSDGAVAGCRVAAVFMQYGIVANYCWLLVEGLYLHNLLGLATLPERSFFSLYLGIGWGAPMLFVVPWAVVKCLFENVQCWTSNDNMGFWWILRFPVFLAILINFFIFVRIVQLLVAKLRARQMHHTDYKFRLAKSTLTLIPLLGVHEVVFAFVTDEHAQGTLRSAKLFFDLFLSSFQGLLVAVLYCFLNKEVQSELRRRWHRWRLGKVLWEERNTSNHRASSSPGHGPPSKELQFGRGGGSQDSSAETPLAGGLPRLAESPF
Regarding B1, the “EC50 GlucagonR [pM], CRE luciferase reporter gene assay” value (“EC50 GlucagonR [pM]” for short) was determined as 84 pM.
On to [Desaminohistidyl][Ac4c]HGTFTSDYSKYLEEQAAREFIAWLLKK([Gly-Ser-Glu-Gly-Ser-γGlu-γGlu-C18 diacid])-NH2, for which the “EC50 GlucagonR [pM]” value amounted to 117 pM.
With B2, the “EC50 GlucagonR [pM]” value amounted to 222 pM.
On to [Desaminohistidyl][Aib]HGTFTSDVSRYLEGQAAREFIAWLLK([Gly-Ser-Glu-Gly-Ser-γGlu-γGlu-C18 diacid])T-NH2, for which the “EC50 GlucagonR [pM]” value came out at 143 pM.
For the molecule [Desaminohistidyl][Aib]HGTFTSDVSKYLEAQAAREFIAWLLK([γGlu-γGlu-Ado-γGlu-γGlu-C18 diacid])T-NH2, the “EC50 GlucagonR [pM]” value was determined as 21 pM.
In the case of [Desaminohistidyl][Aib]HGTFTSDVSRYLEEQAAREFIAWLLK([Gly-Ser-Glu-Gly-Ser-γGlu-γGlu-C18 diacid])T-NH2, the “EC50 GlucagonR [pM]” value was 60 pM.
On the same count and under the same terms, then B3, with 71 pM.
Same read-out and setting: then [Desaminohistidyl][Aib]HGTFTSDVSKYLEEQAAREFIAWLIK([Ado-Ado-γGlu-γGlu-C18 diacid])T-NH2, with 106 pM; and B4, with 54 pM; and [Desaminohistidyl][Ac4c]HGTFTSDVSKYLEGRAAREFIAWLLK([Gly-Ser-Glu-Gly-Ser-γGlu-γGlu-C18 diacid])T-NH2, with 28 pM.

For another experiment, the target named is T1, human GLP-1 receptor. Nature of the experiment: SPA displacement of [125I]GLP-1(7-36)NH2 from hGLP-1R BHK membranes. Here is the method:
The GLP-1 receptor binding of each derivatives were determined with competitive binding, displacing [¹²⁵I]GLP-1 bound to GLP-1 receptors expressed in cell membranes associated with wheat germ agglutinin (WGA) scintillation proximity assay (SPA) beads. Each derivative was added in a series of concentrations to isolated membranes comprising the human GLP-1 receptor and displacement of the labelled radioligand was monitored. The receptor binding was reported as the concentration at which half of the labelled ligand is displaced from the receptor, the IC⁵⁰ value.
1. For the receptor binding assay 50 μl of the assay buffer was added to each well of an assay plate. [0588] 2. Test compounds were serially diluted to give the following concentrations: 8×10EE-7 M, 8×10EE-8 M, 8×10EE-9 M, 8×10EE-10 M, 8×10EE-11 M, 8×10EE-12 M and 8×10EE-13 M. Twenty-five μl were added to appropriate wells in the assay plate. [0589] 3. Cell membrane aliquots were thawed and diluted to their working concentration. Fifty μl were added to each well in the assay plate. [0590] 4. WGA SPA beads were suspended in assay buffer at 20 mg/ml. The suspension was diluted to 10 mg/ml in assay buffer just prior to addition to the assay plate. Fifty μl were added to each well in the assay plate. [0591] 5. […] A 25 μl aliquot was reserved for measuring total counts/well. [0592] 6. The assay plate was incubated for 2 h at 30° C. [0593] 7. The assay plate was centrifuged for 10 min. [0594] 8. The assay plate was read in a Perkin Elmer TopCount NXT instrument.
On the technique in general: Loss of bound radioactivity is the signal in a displacement assay; it reports binding, not function.
In general, IC50 refers to the concentration that inhibits the measured activity by half. A lower IC50 goes with inhibition by little substance. Regarding B1, the IC50 came out at 2.3 nM. In other words, the single-digit nanomolar range.
Regarding [Desaminohistidyl][Ac4c]HGTFTSDYSKYLEEQAAREFIAWLLKK([Gly-Ser-Glu-Gly-Ser-γGlu-γGlu-C18 diacid])-NH2, the IC50 was found to be 0.7 nM.
For the molecule B2, the IC50 was determined as 7.3 nM.
[Desaminohistidyl][Aib]HGTFTSDVSRYLEGQAAREFIAWLLK([Gly-Ser-Glu-Gly-Ser-γGlu-γGlu-C18 diacid])T-NH2 displayed an IC50 of 0.9 nM. This IC50 is about 8.1-fold lower than that of the molecule before.
[Desaminohistidyl][Aib]HGTFTSDVSKYLEAQAAREFIAWLLK([γGlu-γGlu-Ado-γGlu-γGlu-C18 diacid])T-NH2 gave an IC50 of 0.6 nM.
As for [Desaminohistidyl][Aib]HGTFTSDVSRYLEEQAAREFIAWLLK([Gly-Ser-Glu-Gly-Ser-γGlu-γGlu-C18 diacid])T-NH2, the IC50 turned out to be 0.5 nM. The IC50 values of the last two molecules are within 1.5-fold of each other.
The same measure, in the same setting: then B3, with 0.9 nM.
On the same count and under the same terms, then [Desaminohistidyl][Aib]HGTFTSDVSKYLEEQAAREFIAWLIK([Ado-Ado-γGlu-γGlu-C18 diacid])T-NH2, with 0.2 nM; and B4, with 1.8 nM; and [Desaminohistidyl][Ac4c]HGTFTSDVSKYLEGRAAREFIAWLLK([Gly-Ser-Glu-Gly-Ser-γGlu-γGlu-C18 diacid])T-NH2, with 0.3 nM.

The next experiment deals with T2, human glucagon receptor. Nature of the experiment: SPA displacement of [125I]-glucagon from human glucagon receptor BHK membranes. The procedure:
1. For the receptor binding assay 50 μl of the assay buffer was added to each well of an assay plate. [0603] 2. Test compounds were serially diluted to give the following concentrations: 8×10EE-7 M, 8×10EE-8 M, 8×10EE-9 M, 8×10EE-10 M, 8×10EE-11 M, 8×10EE-12 M and 8×10EE-13 M. Twenty-five μl were added to appropriate wells in the assay plate. [0604] 3. Cell membrane aliquots were thawed and diluted to their working concentration. Fifty μl were added to each well in the assay plate. [0605] 4. WGA SPA beads were suspended in assay buffer at 20 mg/ml. The suspension was diluted to 10 mg/ml in assay buffer just prior to addition to the assay plate. Fifty μl were added to each well in the assay plate. [0606] 5. […] A 25 μl aliquot was reserved for measuring total counts/well. […] 6. The assay plate was incubated for 2 h at 25° C. [0608] 7. The assay plate was centrifuged for 10 min at 1500 rpm. [0609] 8. The assay plate was read in a Perkin Elmer TopCount NXT instrument.
B1 came in with a concentration for half-maximal inhibition (IC50) of 11.7 nM.
In turn, [Desaminohistidyl][Ac4c]HGTFTSDYSKYLEEQAAREFIAWLLKK([Gly-Ser-Glu-Gly-Ser-γGlu-γGlu-C18 diacid])-NH2 yielded an IC50 of 16 nM.
As to B2, the IC50 was 22.5 nM.
[Desaminohistidyl][Aib]HGTFTSDVSRYLEGQAAREFIAWLLK([Gly-Ser-Glu-Gly-Ser-γGlu-γGlu-C18 diacid])T-NH2 displayed an IC50 of 8.9 nM.
On the same count and under the same terms, then [Desaminohistidyl][Aib]HGTFTSDVSKYLEAQAAREFIAWLLK([γGlu-γGlu-Ado-γGlu-γGlu-C18 diacid])T-NH2, with 1.7 nM.
On the same count and under the same terms, under [Desaminohistidyl][Aib]HGTFTSDVSRYLEEQAAREFIAWLLK([Gly-Ser-Glu-Gly-Ser-γGlu-γGlu-C18 diacid])T-NH2 stands 3.8 nM.
In the case of B3, the IC50 is 5.6 nM.
As to [Desaminohistidyl][Aib]HGTFTSDVSKYLEEQAAREFIAWLIK([Ado-Ado-γGlu-γGlu-C18 diacid])T-NH2, the IC50 came to 11.8 nM.
In the case of B4, the IC50 stood at 8.6 nM.
[Desaminohistidyl][Ac4c]HGTFTSDVSKYLEGRAAREFIAWLLK([Gly-Ser-Glu-Gly-Ser-γGlu-γGlu-C18 diacid])T-NH2 showed an IC50 of 7.2 nM.
